Results as given in patent US20080286264A1 (Dana-Farber, published 2008).

Target: p53(293-393) (human, UniProt P04637 293-393)
Test: co-IP with anti-p53 from transfected U2OS cells, immunoblot with anti-MUC1 C-ter

Sequence of p53(293-393) (P04637 293-393): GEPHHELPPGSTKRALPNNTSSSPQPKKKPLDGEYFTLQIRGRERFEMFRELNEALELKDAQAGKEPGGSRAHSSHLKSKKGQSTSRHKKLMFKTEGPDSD

B1: Myc-MUC1-CD(1-72) (other)
chain: CQCRRKNYGQLDIFPARDTYHPMSEYPTYHTHGRYVPPSSTDRSPYEKVSAGNGGSSLSYTNPAVAATSANL
notes: Transiently expressed in U2OS cells; not shown: Myc tag
B1: binds.
